Series [1] addresses T1, MUTYH (His tag cleaved) (mouse) (UniProt Q99P21).
T1 sequence: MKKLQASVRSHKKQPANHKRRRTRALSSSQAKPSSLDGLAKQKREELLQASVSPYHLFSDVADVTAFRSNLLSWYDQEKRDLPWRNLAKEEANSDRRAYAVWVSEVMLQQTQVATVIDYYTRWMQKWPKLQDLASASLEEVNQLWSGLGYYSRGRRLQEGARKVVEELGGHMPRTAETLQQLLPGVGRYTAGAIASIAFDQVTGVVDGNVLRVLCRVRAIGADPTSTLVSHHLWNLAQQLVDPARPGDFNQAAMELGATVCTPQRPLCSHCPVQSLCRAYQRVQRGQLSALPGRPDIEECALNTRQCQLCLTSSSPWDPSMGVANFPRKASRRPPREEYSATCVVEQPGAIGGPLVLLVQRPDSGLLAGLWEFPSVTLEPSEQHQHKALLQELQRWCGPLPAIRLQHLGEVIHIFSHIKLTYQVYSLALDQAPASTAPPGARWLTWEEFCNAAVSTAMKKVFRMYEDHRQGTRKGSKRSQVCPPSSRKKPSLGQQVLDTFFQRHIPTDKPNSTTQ
Put plainly: EMSA. To be noted: 20 nM MUTYH, 8 nM DNA, no UV-DDB; strand 1 position 21 = 8-oxoG (written G); strand 2 position 17 = tetrahydrofuran abasic analogue (written N), opposite the 8-oxoG; EMSA: 20 mM HEPES pH 7.5, 150 mM NaCl, 5 mM DTT, 0.5 mg/ml BSA, 5% glycerol, RT; 5% native gel in 1/2x TBE at 4 C. On the technique in general: Mobility shift assays separate free from complexed probe on a gel.

Series [2] relates to His6-MUTYH (mouse). Put plainly: single-molecule DNA tightrope. Particulars: one tetrahydrofuran abasic site every 2 kb, EMSA: 20 mM HEPES pH 7.5, 150 mM NaCl, 5 mM DTT, 0.5 mg/ml BSA, 5% glycerol, RT, 5% native gel in 1/2x TBE at 4 C.
In series [3] the target is mouse MUTYH, hexa-histidine tag cleaved with thrombin (mouse) (UniProt Q99P21).

Turning to “CCGAGTCATTCCTGCAGCGAGTCCATGGGAGTCAAAT / ATTTGACTCCCATGGANTCGCTGCAGGAATGACTCGG [THF8-oxoG37]”, in series [1], the binding signal was over 80 % DNA bound.

With THF array (tightrope DNA), the binding signal (s (half-life on abasic sites)) in series [2] (with UV-DDB, which promotes MUTYH dissociation) turned out to be 590; in series [2] (without UV-DDB) it was 8800.

For the substance “UV-DDB (DDB1–DDB2 heterodimer) (from UniProt Q16531 1-1140; Q92466 1-427) (complex)”, the MUTYH (20 nM) excision of A opposite 8-oxoG in 50 nM 37 bp duplex, with 50 nM UV-DDB against without, up to 4 h at 37°C in series [3] fell in the range of 4 to 5 fold.

The values above are taken from publication PMC8373069.
